We go through one protein from FireProtDB.

The conditions of the data set: Bombyx mori, whole UniProt chain shown; for Tm / unfolding enthalpy (calorimetric) / unfolding enthalpy (van 't Hoff): Thermal, DSC.
Setting [1] is: pH 3.5, sodium acetate buffer 50 mM.
The mark [2] stands for this setting: pH 4, sodium acetate buffer 50 mM.
Where [3] appears, read: pH 4.5, sodium acetate buffer 50 mM.
Setting [4] is: pH 5, sodium acetate buffer 50 mM.
Setting [5] is: pH 8, 25 °C, GdnHCl, CD, Tris-HCl 50 mM.

B1: Lysozyme wild type, P48816 (protein)
chain: MQKLIIFALVVLCVGSEAKTFTRCGLVHELRKHGFEENLMRNWVCLVEHESSRDTSKTNTNRNGSKDYGLFQINDRYWCSKGASPGKDCNVKCSDLLTDDITKAAKCAKKIYKRHRFDAWYGWKNHCQGSLPDISSC
For the protein B1, the midpoint of thermal melting (Tm) – broadly, the temperature at the midpoint of the melting transition – (pH 3, glycine-HCl 50 mM) amounted to 45.2 °C; the Tm (pH 3.25, glycine-HCl 50 mM) was determined as 51 °C; the Tm under setting [1] was 56 °C; the Tm under setting [2] came out at 59.3 °C; the Tm under setting [3] worked out at 62.8 °C; the Tm under setting [4] was 65.3 °C. In addition, the “unfolding enthalpy (calorimetric)” value (pH 3, glycine-HCl 50 mM) is 77.6 kcal/mol; the “unfolding enthalpy (calorimetric)” value (pH 3.25, glycine-HCl 50 mM) came to 81.5 kcal/mol; the “unfolding enthalpy (calorimetric)” value under setting [1] was 88.5 kcal/mol; the “unfolding enthalpy (calorimetric)” value under setting [2] was 91.9 kcal/mol; the “unfolding enthalpy (calorimetric)” value under setting [3] came out at 94.1 kcal/mol; the “unfolding enthalpy (calorimetric)” value under setting [4] amounted to 99.7 kcal/mol. Moreover, the “unfolding enthalpy (van 't Hoff)” value amounted to 80.9 kcal/mol (pH 3, glycine-HCl 50 mM); 86.7 kcal/mol (pH 3.25, glycine-HCl 50 mM); 91.4 kcal/mol under setting [1]; 92.4 kcal/mol under setting [2]; 93.8 kcal/mol under setting [3]; 95.1 kcal/mol under setting [4]. Further, under setting [5], the denaturant m value was determined as 3.4 kcal/mol/M. For the same protein, under setting [5], the “denaturant midpoint (higher = more stable)” value is 2.39 M. For the same protein, under setting [5], the unfolding free energy was found to be 8.1 kcal/mol.
